Measured values reported in US20260218135A1 (REGENTS OF THE UNIVERSITY OF COLORADO A BODY CORPORATE, published 2026).

Assays:
[1] = target: HA-PEG10 gag-pol (2x HA-tagged human PEG10, AA1-708) (Homo sapiens) (UniProt Q86TG7); test: cell-based or functional assay
[2] = target: T1, FLAG-HsRTL8c-3'UTR (3x FLAG-tagged human RTL8c, AA1-113) (Homo sapiens, UniProt A6ZKI3 1-113); test: crosslinking co-immunoprecipitation, IP-FLAG, HEK293 lysate, western blot
T1 construct: range 1-113; Expressed in HEK293 cells from pcDNA3.1; also called FLAG-RTL8c; human FLAG-RTL8; not shown: 3x FLAG tag (N-terminal)
T1 sequence (A6ZKI3 whole entry, the tested form may be a part): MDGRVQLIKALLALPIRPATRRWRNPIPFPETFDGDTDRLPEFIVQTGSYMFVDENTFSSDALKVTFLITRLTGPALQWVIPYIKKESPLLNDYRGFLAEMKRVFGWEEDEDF
Description: HA-PEG10 was visible as four distinct bands representing gag-pol, gag, and two self-cleavage products generated via activity of the PEG10 protease domain^{16,36,37}. The 37 kDa band represents a retrovirus-like capsid fragment, and the 22 kDa band reflects a protein fragment consisting of the N-terminal ~100 amino acids of the protein (referred to as the ‘N-terminal fragment’, or ‘NTF’) 16. Upon immunoprecipitation of HA-PEG10, Applicants observed co-immunoprecipitation of FLAG-RTL8c (FIG. 3a).
Beads were first crosslinked to antibodies. Primary antibodies (5 μg) or isotype controls (5 μL) were incubated with 40 μL protein A (Invitrogen) or protein G (Pierce) bead slurry for 30 min to couple antibodies to beads. After coupling, beads were collected by centrifugation and the supernatant discarded. Unless otherwise stated, all incubations and washes were performed with end-over-end rotation at room temperature. All centrifugation to collect beads was performed 2,500×g for 2 min. Beads were washed twice (1 mL 0.2M sodium borate, pH 9 for 1 min), resuspended in 400 μL 20 mM dimethyl pimelimidate (DMP, Thermo) and incubated for 30 min to crosslink antibodies. After crosslinking, beads were washed twice (1 mL 0.2M ethanolamine (EMD Millipore) pH 8 for 5 min) and incubated in 1.4 mL 0.2M ethanolamine for two hr. Beads were then washed twice (1 mL PBS for 5 min). […]

[3] = target: T1, FLAG-HsRTL8c-3'UTR (3x FLAG-tagged …); test: co-immunoprecipitation with FLAG-RTL8c, western blot (FIG. S6b)

HA-HsRTL8c-3'UTR (2x HA-tagged human RTL8c, AA1-113) (from UniProt A6ZKI3 1-113)
abundance of HA-RTL8c relative to HA-PEG10 in the VLP fraction (western blot) [1]: 5%

B1: N-terminal fragment of HA-PEG10 (22 kDa self-cleavage product, N-terminal ~100 amino acids) (other, Homo sapiens, UniProt Q86TG7 1-111, looked up)
chain: MTERRRDELSEEINNLREKVMKQSEENNNLQSQVQKLTEENTTLREQVEPTPEDEDDDIELRGAAAAAAPPPPIEEECPEDLPEKFDGNPDMLAPFMAQCQIFMEKSTRDF
notes: A band on the blot; The construct that mimics it (AA1-111) is m6; also called NTF; shorter proteolytically cleaved N-terminal fragment; not shown: 2x HA tag (N-terminal) of the parent HA-PEG10 construct
binding result [2]: no binding

B2: HA-N-terminal fragment construct (2x HA-tagged human PEG10, AA1-111) (other, Homo sapiens, UniProt Q86TG7 1-111, looked up)
chain: B1 chain
notes: range 1-111; Truncation construct that mimics the natural self-cleavage of PEG10; also called HA-NTF; not shown: 2x HA tag (N-terminal)
binding result [3]: no binding

B3: HA-capsid^CTD (human PEG10, AA161-259, 1x HA C-terminal) (other, Homo sapiens, UniProt Q86TG7 161-259, looked up)
chain: PQRREVAKRKIRRLRQGMGSVIDYSNAFQMIAQDLDWNEPALIDQYHEGLSDHIQEELSHLEVAKSLSALIGQCIHIERRLARAAAARKPRSPPRALVL
notes: range 161-259; not shown: 1x HA tag (C-terminal)
binding result [2]: no binding
